# Reference: US20250242034A1, “PHOSPHORAMIDATE-BASED PSMA-TARGETED SMALL-MOLECULE DRUG CONJUGATES” (priority 2022, published 2025)
# Where two headings read alike, the source gives them in different places. Square brackets hold non-standard residues; d marks the D form. Peptide text beside a SMILES is read from it. * marks the point of attachment. Dolaproine = CO[C@@H]([C@@H]1CCCN1)[C@@H](C)C(=O)O; Dil = CC[C@H](C)[C@H](NC)[C@@H](CC(=O)O)OC; X1 = C[C@@H](N*)[C@@H](O)c1ccccc1; NMeV = CN[C@H](C(=O)O)C(C)C
# Key:
# [1] = target: PSMA (Homo sapiens, UniProt Q04609); assay: PSMA binding (IC50 values for PSMA)
# [2] = test system: PSMA+ PC3-PIP tumor cells; type: in vivo, NCr nude mice; settings: n=8; for time until animals reached end point criteria / end point tumor burden after first administration: IV once weekly for 6 weeks, SMDCs 0.8 mg/kg, MMAE 0.2 mg/kg
# Description: Efficacy Study Design: NCr nude mice (age 6-8 weeks) injected with 1×10^6 PC3 PiP cells (1:1 in saline with Matrigel, 100 μL total volume) subcutaneously to right rear flank. Tumors were allowed to grow until approximate size of 100 mm^3 (roughly 2-3 weeks) before starting compound treatments. Treatment consisted of an injection of the appropriate compound to the lateral tail vein (100 μL bolus) once a week for the first 6 weeks of the study. Efficacy treatment groups were 8 animals each of: 1) saline, 2) MMAE alone, 0.2 mg/kg (molar equivalent to the MMAE conjugated to the small molecules), 3) CTT1700 (structure noted below), 0.8 mg/kg, 4) 1, 0.8 mg/kg, and 5) 2, 0.8 mg/kg. Tumor sizes were measured twice weekly for the duration of the study and mortality noted for survival curves. Animals were sacrificed if tumor condition reached IACUC standards for euthanasia (tumor burden of >1.5 cm in any axis, ulceration, >20% weight loss). Blood draws were taken via superficial temporal vein at 0, 4, 7 and 10 weeks and CBCs with 3-part differential measured.
# (§1) To evaluate efficacy of SMDCs 1 and 2 in preclinical models of human PCa, we employed xenograft tumor models derived from PSMA+ PC3-PIP tumor cells implanted subcutaneously in the right rear flank of NCr nude mice (6-8 weeks old). […] Tumor sizes were measured twice weekly for the duration of the study and mortality noted for survival curves for 90 days after first administration. Animals were euthanized if tumor or mouse condition reached IACUC standards for euthanasia (tumor burden of >1.5 cm in any axis, ulceration, >20% mouse weight loss). Blood draws were taken via superficial temporal vein at 0, 4, 7 and 10 weeks, and complete blood count (CBC) analysis was performed with a 3-part differential measurement.
# [3] = Compound residence study (PK): plasma and tissue levels of parent drug and MMAE by LC-MS/MS; type: in vivo, NCr nude mice; settings: for Tumor AUC0-t, MMAE / Tumor Cmax, MMAE / Tumor AUC0-t, Parent / Tumor Cmax, Parent: PC3-PiP tumor; for Tumor AUC0-t, MMAE / Tumor Cmax, MMAE / Kidney AUC0-t, MMAE / Kidney Cmax, MMAE / Plasma % extrapolated, MMAE: analyte MMAE payload; for parent drug concentrations in tissues other than tumor: 0.8 mg/kg; for fraction of drug that is estimated to release MMAE: calculated from apparent MMAE formation clearance and reported MMAE clearance
# Description: Compound Residence study design (PK Studies): Three volumes of PBS, pH 7.4, were added to tumor, kidney, and lacrimal tissues and 10 volumes of PBS, pH 7.4, were added to prostate tissue samples. Tumor, kidney, and prostate samples were homogenized with a homogenizer, and lacrimal tissues were sonicated with a sonicator. Twenty five microliters of plasma or tissue homogenate was added to a microcentrifuge tube followed by 10 μL of internal standard solution and 100 μL of 5 mM ammonium bicarbonate and acetonitrile (25:75 v,v). The sample was then vortexed at a high setting for 1 minute and centrifuged at 17,200×g for 10 minutes. The resultant supernatant was pipetted into an HPLC vial and 10-20 μL was injected into the LC-MS/MS system. […] [^2H8]-MMAE was used as the internal standard for MMAE. […] A SCIEX 6500+ Qtrap LC-MS/MS system consisting of an Agilent (Palo Alto, CA 94036) 1290 HPLC and Sciex 6500+ QTrap mass detector was used for quantitation of MMAE concentrations. The chromatography consisted of a gradient using of 5 mM ammonium bicarbonate and acetonitrile and the separation was achieved using a Phenomenex (Torrance, CA 90501) Kinetex column (2×50 mm, 2.6 μm). […] Standard curves were linear from 10-10,000 ng/mL for CTT1700, SMDCs 2 and 1 while the MMAE standard curves were linear from 0.01 to 10 ng/mL. A 1/y^2 weighted linear regression was used for all standard curves.
# PK parameters were estimated using standard noncompartmental methods with Phoenix WinNonlin (Certara, Princeton, NJ). Plasma parent drugs were derived using the IV bolus approach, while all other data were derived using the extravascular approach.
# as §1, with “measurement. For biodistribution studies, blood samples were obtained at 1 and 6 h post a single 0.8 mg/kg dose, followed by euthanasia at 24, 72 and 120 h; LC-MS/MS analysis was performed to determine concentrations of SMDC and MMAE in plasma, tumor, lacrimal gland, kidney, and prostate samples.” for “measurement.”
# [4] = reported pharmacokinetics of MMAE dosed directly; type: in vivo; settings: corresponds to 60 mL/h
# [5] = cited from earlier work
# [6] = 0.8 mg/kg IV once weekly for 6 weeks
# [7] = IV 0.8 mg/kg, analyte parent drug
# [8] = NCr nude, mouse, IV 0.8 mg/kg, plasma, analyte parent drug, read-out: Plasma Cmax, Parent
# [9] = IV 0.8 mg/kg, kidney, analyte parent drug
# [10] = IV 0.8 mg/kg, plasma, analyte parent drug
# Sequence of PSMA (Q04609 whole entry): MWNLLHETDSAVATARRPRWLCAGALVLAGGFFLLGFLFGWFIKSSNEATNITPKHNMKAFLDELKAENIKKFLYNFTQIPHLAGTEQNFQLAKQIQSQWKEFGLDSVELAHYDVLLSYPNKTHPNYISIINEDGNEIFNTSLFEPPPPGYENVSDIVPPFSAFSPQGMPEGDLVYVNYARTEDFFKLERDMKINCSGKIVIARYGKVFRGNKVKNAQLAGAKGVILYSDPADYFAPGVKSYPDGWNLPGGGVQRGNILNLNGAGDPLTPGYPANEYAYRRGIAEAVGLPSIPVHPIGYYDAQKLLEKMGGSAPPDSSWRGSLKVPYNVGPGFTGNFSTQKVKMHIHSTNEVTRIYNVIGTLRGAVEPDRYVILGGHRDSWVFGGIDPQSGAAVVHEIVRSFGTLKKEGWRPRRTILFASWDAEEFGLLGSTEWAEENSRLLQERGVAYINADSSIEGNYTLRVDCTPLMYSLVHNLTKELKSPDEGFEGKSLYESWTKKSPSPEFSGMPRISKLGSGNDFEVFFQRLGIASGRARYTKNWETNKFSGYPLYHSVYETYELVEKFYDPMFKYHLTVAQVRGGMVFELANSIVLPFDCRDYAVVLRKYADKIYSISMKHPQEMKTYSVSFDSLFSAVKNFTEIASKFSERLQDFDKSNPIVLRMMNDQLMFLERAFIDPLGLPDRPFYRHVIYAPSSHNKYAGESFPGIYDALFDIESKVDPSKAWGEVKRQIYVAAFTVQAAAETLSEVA
smiles,measurement,setting,value
CC[C@H](C)[C@@H]([C@@H](CC(=O)N1CCC[C@H]1[C@H](OC)[C@@H](C)C(=O)N[C@H](C)[C@@H](O)c1ccccc1)OC)N(C)C(=O)[C@@H](NC(=O)[C@H](C(C)C)N(C)C(=O)OCc1ccc(OC(=O)N(C)CCN(C)P(=O)(O)OCC[C@H](NC(=O)c2ccc(Cn3nnc4c3-c3ccccc3CN(C(=O)CCC(=O)NCCOCCOCCOCCOCCC(=O)N[C@@H](CCC(=O)NCCCCCC(=O)N[C@@H](CCC(=O)N[C@@H](CCCOP(=O)(O)N[C@@H](CCC(=O)O)C(=O)O)C(=O)O)C(=O)O)C(=O)N[C@H](CCCCNC(=O)CCCc3ccc(I)cc3)C(=O)O)c3ccccc3-4)cc2)C(=O)O)cc1)C(C)C [SMDC 2],IC50,[1],1.74 ± 0.14 nM
CC[C@H](C)[C@@H]([C@@H](CC(=O)N1CCC[C@H]1[C@H](OC)[C@@H](C)C(=O)N[C@H](C)[C@@H](O)c1ccccc1)OC)N(C)C(=O)[C@@H](NC(=O)[C@H](C(C)C)N(C)C(=O)OCc1ccc(NC(=O)[C@H](CCCNC(N)=O)NC(=O)[C@@H](NC(=O)c2ccc(Cn3nnc4c3-c3ccccc3CN(C(=O)CCC(=O)NCCOCCOCCOCCOCCC(=O)N[C@@H](CCC(=O)NCCCCCC(=O)N[C@@H](CCC(=O)N[C@@H](CCCOP(=O)(O)N[C@@H](CCC(=O)O)C(=O)O)C(=O)O)C(=O)O)C(=O)N[C@H](CCCCNC(=O)CCCc3ccc(I)cc3)C(=O)O)c3ccccc3-4)cc2)C(C)C)cc1)C(C)C [SMDC 1],survival 90 days after initial dosing,[2]; [6],Six of eight
same,therapeutic efficacy (in words),[2]; [6],dramatic efficacy compared to controls
same,tumor growth response,[2]; [6],"tumor regression was observed following initiation of administration up until 2 weeks after the last dose, with subsequent slow tumor growth"
same,"Tumor AUC0-t, MMAE",[3]; IV 0.8 mg/kg,1652 ng·days/g
same,"Tumor Cmax, MMAE",[3]; IV 0.8 mg/kg,509 ng/g
same,"Tumor AUC0-t, Parent",[3]; [7],475 ng·days/g
same,"Tumor Cmax, Parent",[3]; [7],122 ng/g
same,parent drug concentrations in tissues other than tumor,[3]; [7],could not be quantified in any other tissue other than the tumor
same,parent drug concentrations in tissues other than tumor,"[3]; IV 0.8 mg/kg, analyte parent drug, listed as VC",VC concentrations in all tissues other than tumor were below the LLOQ.
same,"Kidney AUC0-t, MMAE","[3]; IV 0.8 mg/kg, kidney",55.5 ng·days/g
same,"Kidney Cmax, MMAE","[3]; IV 0.8 mg/kg, kidney",30.6 ng/g
same,distribution volume of parent SMDC,"[3]; IV 0.8 mg/kg, plasma",0.106 L/kg
same,"Plasma % extrapolated, MMAE","[3]; IV 0.8 mg/kg, plasma AUC",2.9%
same,absolute tumor MMAE exposure compared to CTT1700,"[3]; IV 0.8 mg/kg, tumor, higher than control SMDC with non-degradable linker",approximately 6 fold
same,Cmax,[3]; [8],< 10 ng/mL
same,fraction of drug that is estimated to release MMAE,[3],38%
same,IC50,[1]; read-out: IC50 for PSMA,24.1 ± 2.1 nM
"CC[C@H](C)[C@@H]([C@@H](CC(=O)N1CCC[C@H]1[C@H](OC)[C@@H](C)C(=O)N[C@H](C)[C@@H](O)c1ccccc1)OC)N(C)C(=O)[C@@H](NC(=O)[C@@H](NC)C(C)C)C(C)C [MMAE, Monomethyl auristatin E] (H-[NMeV]V[Dil][Dolaproine]-X1)","reported plasma clearance of MMAE, converted",[4],1960 mL/h/kg
same,time until animals reached end point criteria / end point tumor burden after first administration,[2],≤ 6 weeks
same,t1/2 reported for MMAE when dosed directly,[5]; MMAE dosed directly,4.1 h
same,reported plasma clearance of MMAE,[5]; in vivo,60 mL/h
"CC[C@H](C)[C@@H]([C@@H](CC(=O)N1CCC[C@H]1[C@H](OC)[C@@H](C)C(=O)N[C@H](C)[C@@H](O)c1ccccc1)OC)N(C)C(=O)[C@@H](NC(=O)[C@H](C(C)C)N(C)P(=O)(O)OCC[C@H](NC(=O)c1ccc(Cn2nnc3c2-c2ccccc2CN(C(=O)CCC(=O)NCCOCCOCCOCCOCCC(=O)N[C@@H](CCC(=O)NCCCCCC(=O)N[C@@H](CCC(=O)N[C@@H](CCCOP(=O)(O)N[C@@H](CCC(=O)O)C(=O)O)C(=O)O)C(=O)O)C(=O)N[C@H](CCCCNC(=O)CCCc2ccc(I)cc2)C(=O)O)c2ccccc2-3)cc1)C(=O)O)C(C)C [CTT1700, reference compound]",therapeutic efficacy (in words),[2]; [6],moderate efficacy
same,time until animals reached end point criteria / end point tumor burden after first administration,[2],≤ 12 weeks
same,"Tumor AUC0-t, MMAE",[3]; IV 0.8 mg/kg,262 ng·days/g
same,"Tumor Cmax, MMAE",[3]; IV 0.8 mg/kg,98.7 ng/g
same,"Tumor AUC0-t, Parent",[3]; [7],483 ng·days/g
same,"Tumor Cmax, Parent",[3]; [7],194 ng/g
same,"Kidney AUC0-t, MMAE","[3]; IV 0.8 mg/kg, kidney",4.00 ng·days/g
same,"Kidney Cmax, MMAE","[3]; IV 0.8 mg/kg, kidney",1.82 ng/g
same,"Kidney AUC0-t, Parent",[3]; [9],685 ng·days/g
same,"Kidney Cmax, Parent",[3]; [9],400 ng/g
same,"Lacrimal AUC0-t, Parent","[3]; IV 0.8 mg/kg, lacrimal gland, analyte parent drug",220 ng·days/g
same,"Plasma % extrapolated, MMAE","[3]; IV 0.8 mg/kg, plasma AUC",28%
same,"Plasma % extrapolated, Parent","[3]; IV 0.8 mg/kg, plasma AUC, analyte parent drug",1.9%
same,"Plasma AUC0-inf, Parent",[3]; [10],6566 ng·days/mL
same,"Plasma AUC0-t, Parent",[3]; [10],6442 ng·days/mL
same,"Prostate AUC0-t, Parent","[3]; IV 0.8 mg/kg, prostate, analyte parent drug",647 ng·days/g
same,Kp,"[3]; NCr nude, mouse, kidney/plasma, IV 0.8 mg/kg, analyte parent drug, read-out: Kp (kidney/plasma), Parent",0.106
same,Kp,"[3]; NCr nude, mouse, lacrimal gland/plasma, IV 0.8 mg/kg, analyte parent drug, read-out: Kp (Lacrimal/plasma), Parent",0.0342
same,Kp,"[3]; NCr nude, mouse, prostate/plasma, IV 0.8 mg/kg, analyte parent drug, read-out: Kp (prostate/plasma), Parent",0.1
same,Kp,"[3]; NCr nude, mouse, tumor/plasma, IV 0.8 mg/kg, analyte parent drug, read-out: Kp (tumor/plasma), Parent",0.075
same,Cmax,"[3]; NCr nude, mouse, IV 0.8 mg/kg, lacrimal gland, analyte parent drug, read-out: Lacrimal Cmax, Parent",71.9 ng/g
same,Tmax,"[3]; NCr nude, mouse, IV 0.8 mg/kg, plasma, analyte parent drug",1 h
same,clearance,"[3]; NCr nude, mouse, IV 0.8 mg/kg, plasma, analyte parent drug, read-out: Plasma Cl, Parent (converted)",5.08 mL/h/kg
same,Cmax,[3]; [8],7020 ng/mL
same,Vd,"[3]; NCr nude, mouse, IV 0.8 mg/kg, plasma, analyte parent drug, read-out: Plasma Vss, Parent",0.136 L/kg
same,half-life,"[3]; NCr nude, mouse, IV 0.8 mg/kg, plasma, analyte parent drug, read-out: Plasma t1/2, Parent (converted)",23 h
same,Cmax,"[3]; NCr nude, mouse, IV 0.8 mg/kg, prostate, analyte parent drug, read-out: Prostate Cmax, Parent",280 ng/g
same,fraction of drug that is estimated to release MMAE,[3],1%
